Laboratory results from patent US20170044259A1 (published 2017).

Experiments:
[1] = target: T1, human PD-1-Fc (R and D systems, Minneapolis, Minn.) (human, UniProt Q15116 25-167); test: inhibition ELISA; hPDL-1 Fc blockade
[2] = target: T1, human PD-1-Fc (R and D systems, …); test: inhibition ELISA; hPDL-1 Fc blockade; remark: listed apart in the source
[3] = target: T1, human PD-1-Fc (R and D systems, …); test: inhibition ELISA; hPDL-2 Fc blockade
[4] = target: T1, human PD-1-Fc (R and D systems, …); test: inhibition ELISA; hPDL-2 Fc blockade; remark: listed apart in the source
[5] = target: human PD-1-His (R & D systems, Minneapolis, Minn.) (human, UniProt Q15116 25-167); test: BLI
[6] = target: T1, human PD-1-Fc (R and D systems, …); test: inhibition ELISA; hPDL-1 Fc blockade; remark: listed apart in the source
[7] = target: T1, human PD-1-Fc (R and D systems, …); test: inhibition ELISA; hPDL-2 Fc blockade; remark: listed apart in the source
[8] = target: T1, human PD-1-Fc (R and D systems, …); test: ELISA; lower right panel
[9] = target: T1, human PD-1-Fc (R and D systems, …); test: ELISA; upper left panel
[10] = target: T1, human PD-1-Fc (R and D systems, …); test: ELISA; upper right panel
[11] = target: T1, human PD-1-Fc (R and D systems, …); test: ELISA; lower left panel
[12] = target: T2, mouse PD-1 expressed on HEK293 cells (mouse, UniProt Q02242 25-288); test: flow cytometry blocking; blocking of biotin-mPD-L1
T2 chain: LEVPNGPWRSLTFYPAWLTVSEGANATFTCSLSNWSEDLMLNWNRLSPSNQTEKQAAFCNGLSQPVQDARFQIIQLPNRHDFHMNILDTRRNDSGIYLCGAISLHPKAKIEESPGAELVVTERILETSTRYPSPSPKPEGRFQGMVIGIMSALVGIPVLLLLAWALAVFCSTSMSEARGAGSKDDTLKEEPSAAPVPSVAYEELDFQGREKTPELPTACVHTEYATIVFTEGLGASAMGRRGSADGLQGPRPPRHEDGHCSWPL

[13] = target: T2, mouse PD-1 expressed on HEK293 cells; test: flow cytometry cell binding
[14] = target: T2, mouse PD-1 expressed on HEK293 cells; test: flow cytometry blocking; blocking of biotin-mPD-L2

T1 sequence (Q15116 25-167): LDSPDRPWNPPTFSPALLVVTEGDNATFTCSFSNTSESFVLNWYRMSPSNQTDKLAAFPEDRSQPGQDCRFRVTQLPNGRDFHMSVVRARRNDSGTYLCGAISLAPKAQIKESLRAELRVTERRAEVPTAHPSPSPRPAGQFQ
Sequence of human PD-1-His (R & D systems, Minneapolis, Minn.) (Q15116 25-167): as above

B1: C1.1 (antibody, V domains shown)
VH: EVQLVESGGGLVQPGGSLRLSCAASGFTFSNYAMSWVRQAPGKGLEWVAYISNGGGDTHYADSLKGRFTVSRDNSKNTLYLQMNSLRAEDTAVYYCARENYGTSPFVYWGQGTLVTVSS
VL: DIQLTQSPSSLSVSVGDRATITCRASESVDNYGISFMNWFQQKPGKAPKLLIYAASNQGSGVPSRFSGSGSGTDFTLTISSMQPEDFATYYCQQSKDVPWTFGQGTKLEIKR
Binder B1 has an IC50 [1] of 1.32 nM, an IC50 [2] of 3.73 nM and an IC50 [3] of 1.2 nM. The IC50 [4] was 3.07 nM and the Kd [5] was 12.4 nM.

B2: A1.0 (antibody, V domains shown)
VH: EVQLVESGGGLVQPGGSLRLSCAASGFTFSGYAMSWVRQAPGKGLEWVAYISNSGGNAHYADSVKGRFTISRDNSKNTLYLQMNSLRAEDTAVYYCTREDYGTSPFVYWGQGTLVTVSS
VL: DIQLTQSPSSLSASVGDRVTITCRASESVDNYGISFMNWFQQKPGKAPKLLIYAASNQGSGVPSRFSGSGSGTDFTLTISSMQPEDFATYYCQQSKDVPWTFGQGTKLEIKR
Work on B2 yielded an IC50 [6] of 1.85 nM and an IC50 [7] of 1.04 nM.

B3: A1.5 (antibody)
heavy: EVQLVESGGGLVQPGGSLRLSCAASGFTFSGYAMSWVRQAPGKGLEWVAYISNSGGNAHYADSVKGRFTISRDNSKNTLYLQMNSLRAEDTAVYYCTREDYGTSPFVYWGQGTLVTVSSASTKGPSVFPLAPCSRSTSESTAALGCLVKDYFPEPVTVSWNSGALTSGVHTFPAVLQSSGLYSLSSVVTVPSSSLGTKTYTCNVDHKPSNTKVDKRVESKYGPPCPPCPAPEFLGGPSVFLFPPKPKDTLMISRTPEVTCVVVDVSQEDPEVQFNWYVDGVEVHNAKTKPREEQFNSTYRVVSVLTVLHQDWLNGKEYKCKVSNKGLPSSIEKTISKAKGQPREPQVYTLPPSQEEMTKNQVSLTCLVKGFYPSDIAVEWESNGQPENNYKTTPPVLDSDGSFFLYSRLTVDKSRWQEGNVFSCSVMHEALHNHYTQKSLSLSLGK
light: DIQLTQSPSSLSASVGDRVTITCRASESVDAYGISFMNWFQQKPGKAPKLLIYAASNQGSGVPSRFSGSGSGTDFTLTISSMQPEDFATYYCQQSKDVPWTFGQGTKLEIKRTVAAPSVFIFPPSDEQLKSGTASVVCLLNNFYPREAKVQWKVDNALQSGNSQESVTEQDSKDSTYSLSSTLTLSKADYEKHKVYACEVTHQGLSSPVTKSFNRGEC
In the case of B3, the Kd [8] is reported as 0.176 nM, the IC50 [1] is reported as 1.4 nM and the IC50 [2] is reported as 4.25 nM. It also gave a Kd [9] of 0.162 nM, a Kd [10] of 0.18 nM and an IC50 [4] of 2.94 nM. It also gave a Kd [11] of 0.16 nM and a Kd [5] of 1.48 nM.

B4: J43v2 mIgG2a (antibody, V domains shown)
VH: EVRLLESGGGLVKPEGSLKLSCVASGFTFSDYFMSWVRQAPGKGLEWVAHIYTKSYNYATYYSGSVKGRFTISRDDSRSMVYLQMNNLRTEDTATYYCTRDGSGYPSLDFWGQGTQVTVSS
VL: YELTQPPSASVNVGETVKITCSGDQLPKYFADWFHQRSDQTILQVIYDDNKRPSGIPERISGSSSGTTATLTIRDVRAEDEGDYYCFSGYVDSDSKLYVFGSGTQLTVLG
Work on B4 yielded an EC50 [12] of 6.06 nM, an EC50 [13] of 4.31 nM and an EC50 [14] of 5.9 nM.

B5: A1.5 PD34 2001 (antibody)
heavy: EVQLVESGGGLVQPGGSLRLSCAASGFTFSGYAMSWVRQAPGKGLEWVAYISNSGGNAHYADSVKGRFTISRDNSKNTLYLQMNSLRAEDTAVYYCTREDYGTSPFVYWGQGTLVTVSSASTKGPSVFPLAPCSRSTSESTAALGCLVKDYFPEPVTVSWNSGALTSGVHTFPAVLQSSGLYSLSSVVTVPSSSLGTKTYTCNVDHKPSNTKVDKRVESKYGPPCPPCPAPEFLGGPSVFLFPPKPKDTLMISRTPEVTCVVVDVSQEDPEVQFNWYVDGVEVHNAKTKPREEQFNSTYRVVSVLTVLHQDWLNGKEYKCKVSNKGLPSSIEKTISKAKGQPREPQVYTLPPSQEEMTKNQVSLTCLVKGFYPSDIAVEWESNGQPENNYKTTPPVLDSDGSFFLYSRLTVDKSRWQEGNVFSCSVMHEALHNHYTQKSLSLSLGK
light: QGQSGQGTSYCSIEHYPCNTHHGGGSSGGSISSGLLSGRSDNHGGGSDIQLTQSPSSLSASVGDRVTITCRASESVDAYGISFMNWFQQKPGKAPKLLIYAASNQGSGVPSRFSGSGSGTDFTLTISSMQPEDFATYYCQQSKDVPWTFGQGTKLEIKRTVAAPSVFIFPPSDEQLKSGTASVVCLLNNFYPREAKVQWKVDNALQSGNSQESVTEQDSKDSTYSLSSTLTLSKADYEKHKVYACEVTHQGLSSPVTKSFNRGEC
For B5, the Kd [8] was 8.12 nM, the Kd [9] was 9.37 nM and the Kd [10] was 7.3 nM. It also gave a Kd [11] of 8.4 nM.

B6: PD-1 1.5 PD017 2001 (antibody)
heavy: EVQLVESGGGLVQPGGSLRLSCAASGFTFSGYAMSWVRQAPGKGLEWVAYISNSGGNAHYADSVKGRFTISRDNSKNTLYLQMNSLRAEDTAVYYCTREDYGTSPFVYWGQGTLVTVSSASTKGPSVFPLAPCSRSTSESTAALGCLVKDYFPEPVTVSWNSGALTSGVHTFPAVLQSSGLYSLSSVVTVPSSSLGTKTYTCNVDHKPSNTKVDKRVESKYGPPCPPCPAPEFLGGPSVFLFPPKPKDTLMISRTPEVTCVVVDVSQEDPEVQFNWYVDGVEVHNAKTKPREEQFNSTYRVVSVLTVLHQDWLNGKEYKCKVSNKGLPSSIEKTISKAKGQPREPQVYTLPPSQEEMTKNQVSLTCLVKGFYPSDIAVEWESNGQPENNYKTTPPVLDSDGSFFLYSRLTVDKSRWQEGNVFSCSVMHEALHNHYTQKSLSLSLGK
light: QGQSGQGTTCNLYQQSSMFCNAGGGSSGGSISSGLLSGRSDNHGGGSDIQLTQSPSSLSASVGDRVTITCRASESVDAYGISFMNWFQQKPGKAPKLLIYAASNQGSGVPSRFSGSGSGTDFTLTISSMQPEDFATYYCQQSKDVPWTFGQGTKLEIKRTVAAPSVFIFPPSDEQLKSGTASVVCLLNNFYPREAKVQWKVDNALQSGNSQESVTEQDSKDSTYSLSSTLTLSKADYEKHKVYACEVTHQGLSSPVTKSFNRGEC
In the case of B6, the Kd [10] is reported as 4.36 nM.

B7: A1.2 (antibody, V domains shown)
VH: EVQLVESGGGLVQPGGSLRLSCAASGFTFSGYAMSWVRQAPGKGLEWVAYISNSGGNAHYADSVKGRFTISRDNSKNTLYLQMNSLRAEDTAVYYCTREDYGTSPFVYWGQGTLVTVSS
VL: DIQLTQSPSSLSASVGDRVTITCRASESVDQYGISFMNWFQQKPGKAPKLLIYAASNQGSGVPSRFSGSGSGTDFTLTISSMQPEDFATYYCQQSKDVPWTFGQGTKLEIKR
In the case of B7, the IC50 [6] is reported as 1.55 nM and the IC50 [7] is reported as 1.01 nM.

B8: A1.4 (antibody, V domains shown)
VH: EVQLVESGGGLVQPGGSLRLSCAASGFTFSGYAMSWVRQAPGKGLEWVAYISNSGGNAHYADSVKGRFTISRDNSKNTLYLQMNSLRAEDTAVYYCTREDYGTSPFVYWGQGTLVTVSS
VL: DIQLTQSPSSLSASVGDRVTITCRASESVDSYGISFMNWFQQKPGKAPKLLIYAASNQGSGVPSRFSGSGSGTDFTLTISSMQPEDFATYYCQQSKDVPWTFGQGTKLEIKR
With B8 the IC50 [6] was 1.92 nM and the IC50 [7] was 1.29 nM.

B9: PD-1 1.5 PD012 2001 (antibody)
heavy: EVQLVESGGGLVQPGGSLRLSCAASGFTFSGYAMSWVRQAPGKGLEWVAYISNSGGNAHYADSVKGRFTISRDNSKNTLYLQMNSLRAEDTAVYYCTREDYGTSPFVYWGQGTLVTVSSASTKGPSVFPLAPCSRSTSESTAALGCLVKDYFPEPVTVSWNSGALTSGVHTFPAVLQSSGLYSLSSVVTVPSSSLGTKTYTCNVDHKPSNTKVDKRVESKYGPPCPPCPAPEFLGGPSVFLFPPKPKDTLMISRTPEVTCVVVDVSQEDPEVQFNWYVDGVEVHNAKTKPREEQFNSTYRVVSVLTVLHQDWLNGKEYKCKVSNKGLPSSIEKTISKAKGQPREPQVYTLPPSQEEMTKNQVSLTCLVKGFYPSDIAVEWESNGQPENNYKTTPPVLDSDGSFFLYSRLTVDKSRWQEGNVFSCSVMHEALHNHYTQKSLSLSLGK
light: QGQSGQGNWLDCQFYSECSVYGGGGSSGGSISSGLLSGRSDNHGGGSDIQLTQSPSSLSASVGDRVTITCRASESVDAYGISFMNWFQQKPGKAPKLLIYAASNQGSGVPSRFSGSGSGTDFTLTISSMQPEDFATYYCQQSKDVPWTFGQGTKLEIKRTVAAPSVFIFPPSDEQLKSGTASVVCLLNNFYPREAKVQWKVDNALQSGNSQESVTEQDSKDSTYSLSSTLTLSKADYEKHKVYACEVTHQGLSSPVTKSFNRGEC
Binder B9 has a Kd [10] of 1.74 nM.

B10: PD-1 1.5 PD006 2001 (antibody)
heavy: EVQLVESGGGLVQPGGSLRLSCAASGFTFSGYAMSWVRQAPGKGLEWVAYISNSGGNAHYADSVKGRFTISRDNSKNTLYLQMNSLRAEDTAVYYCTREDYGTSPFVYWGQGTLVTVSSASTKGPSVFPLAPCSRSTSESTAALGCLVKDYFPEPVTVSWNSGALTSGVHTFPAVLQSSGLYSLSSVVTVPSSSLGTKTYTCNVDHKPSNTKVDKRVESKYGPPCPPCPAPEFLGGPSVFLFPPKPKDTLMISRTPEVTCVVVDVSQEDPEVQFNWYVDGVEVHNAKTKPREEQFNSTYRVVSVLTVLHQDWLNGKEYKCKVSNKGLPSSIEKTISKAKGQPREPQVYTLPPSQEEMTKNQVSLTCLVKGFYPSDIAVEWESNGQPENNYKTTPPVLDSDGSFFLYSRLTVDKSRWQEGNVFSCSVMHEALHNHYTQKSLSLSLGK
light: QGQSGQGAPRCYMFASYCKSQYGGGSSGGSISSGLLSGRSDNHGGGSDIQLTQSPSSLSASVGDRVTITCRASESVDAYGISFMNWFQQKPGKAPKLLIYAASNQGSGVPSRFSGSGSGTDFTLTISSMQPEDFATYYCQQSKDVPWTFGQGTKLEIKRTVAAPSVFIFPPSDEQLKSGTASVVCLLNNFYPREAKVQWKVDNALQSGNSQESVTEQDSKDSTYSLSSTLTLSKADYEKHKVYACEVTHQGLSSPVTKSFNRGEC
Work on B10 yielded a Kd [9] of 5.66 nM.

B11: PD-1 1.5 PD009 2001 (antibody)
heavy: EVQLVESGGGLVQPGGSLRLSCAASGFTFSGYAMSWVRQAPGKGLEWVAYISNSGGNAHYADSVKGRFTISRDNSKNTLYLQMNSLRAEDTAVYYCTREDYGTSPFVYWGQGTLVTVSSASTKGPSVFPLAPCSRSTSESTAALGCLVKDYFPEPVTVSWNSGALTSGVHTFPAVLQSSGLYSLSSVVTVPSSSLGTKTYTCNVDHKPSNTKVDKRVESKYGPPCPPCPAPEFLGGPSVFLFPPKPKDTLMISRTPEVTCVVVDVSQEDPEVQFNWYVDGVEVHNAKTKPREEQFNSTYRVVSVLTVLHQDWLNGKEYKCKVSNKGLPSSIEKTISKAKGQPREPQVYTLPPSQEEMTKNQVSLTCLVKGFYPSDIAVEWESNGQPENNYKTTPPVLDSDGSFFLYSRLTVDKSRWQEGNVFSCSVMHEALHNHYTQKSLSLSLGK
light: QGQSGQGAPRTCYTYQCSSFYTGGGSSGGSISSGLLSGRSDNHGGGSDIQLTQSPSSLSASVGDRVTITCRASESVDAYGISFMNWFQQKPGKAPKLLIYAASNQGSGVPSRFSGSGSGTDFTLTISSMQPEDFATYYCQQSKDVPWTFGQGTKLEIKRTVAAPSVFIFPPSDEQLKSGTASVVCLLNNFYPREAKVQWKVDNALQSGNSQESVTEQDSKDSTYSLSSTLTLSKADYEKHKVYACEVTHQGLSSPVTKSFNRGEC
In the case of B11, the Kd [9] is reported as 0.399 nM.
